Consider one substance from paper PMC12756313.

In this assay the target is Protein A (coating of 10 μm silica microparticles) (UniProt P38507). The assay is described as follows: flow cytometry of beads; protein A coated on 10 μm silica particles, incubated with PE Mouse Anti-Human CD9 for 1 h, washed twice by centrifugation (200× g, 1 min); FACS Canto II, PE excitation 488 nm, filter 585/42; unlabeled proteinA-Silica particles used to set the gate.

“BD PE Mouse Anti-Human CD9 (Catalogue #341647, BD Biosciences) (antibody)” had a percent of beads positive for PE of 93%.
